In test [1] the test system is MDA-MB-435s cells. The test can be described thus: Microvessel density (MVD) in tumor, CD31 staining. Format: in vivo, nude mice. To be noted: P<0.01. As for the experimental part: The tissue of the in situ tumor in mouse was isolated, and speed-frozen in liquid nitrogen. 8 um serial sections were made in a constant cold box frozen section machine, and dried for 5 min, before being fixed with acetone at −20° C. for 30 min, and then stained with IHC. Incubation with the rat anti-mouse monoclonal antibody CD31 (working concentration 1:100) was carried out at 4′C overnight. The secondary antibody was goat anti-rat IgG/PE (working concentration 1:100). After Hochest33258 contrast stain, photographs were taken under the fluorescence microscope.
The CD31 protein was mainly expressed on the membrane of the vascular endothelial cells, and was expressed in individual vascular endothelial cells and microvessel, intra-tumor microvessel could be visualized with an anti CD31 antibody (FIG. 16).

Test [2] relates to MDA-MB-435s cells. The test is described as follows: Scratch wound healing assay. The note with it: antibody 25 μg/ml; 24 hours. Format: cell-based. As for the experimental part:
The MDA-MB-435s cells cultured in a 12-wells plate to almost confluent (90%) washed with PBS and starved overnight with serum-free DMEM. Scratches were made on the cell monolayer using a 10 μl pipette, and PBS was added to wash away the floating cells. The test groups were treated with 25 μg/ml of the murine anti-human OPN antibody 1A12, the human-murine chimeric antibody c1A12 and the humanized antibody h1A12, and the control group, 25 μg/ml of the irrelevant antibody. The cells were incubated in an incubator at 37° C. for 24 hours. The result was expressed as the number of the cells that cross the base line.

Test [3] has as its target T1, mouse OPN protein (Mus musculus, UniProt P10923).
T1 construct: made in house; host or cells: Pichia (yeast), culture supernatant
The test is described as follows: Western blot of 1A12 against mouse OPN protein. It counts as binding. As for the experimental part: 100 ug human OPN and an equal volume of Freund's adjuvant were emulsified, and injected intraperitoneally into BALB/C mice. Boost was given every two weeks at the same dose. […] The mouse spleen lymphocytes were fused with NS-1 cells using the classic PEG method. 96-well plate coated with 10 μg/ml human OPN was used for repeated screening by ELISA method to obtain hybridoma cell line 1A12 which was capable of stably expressing anti-human OPN antibody. The strain of 1A12 was amplified, and administrated to BALB/C mice in 5×10^6 cells/mouse (i.p.). The ascites was collected from the 10th day after the injection. The anti-human OPN monoclonal antibody was purified by affinity chromatography using protein A column.

The source of these data is patent US20100151486A1, “OSTEOPONTIN FUNCTIONAL EPITOPES, MONOCLONAL ANTIBODIES AGAINST THE EPITOPES AND USES THEREOF” (SHANGHAI NATIONAL ENGINEERING RESEARCH CENTER OF A, priority 2007, published 2010).

“Also recorded” adds a separate entry of the source.

T1 sequence (P10923 17-294): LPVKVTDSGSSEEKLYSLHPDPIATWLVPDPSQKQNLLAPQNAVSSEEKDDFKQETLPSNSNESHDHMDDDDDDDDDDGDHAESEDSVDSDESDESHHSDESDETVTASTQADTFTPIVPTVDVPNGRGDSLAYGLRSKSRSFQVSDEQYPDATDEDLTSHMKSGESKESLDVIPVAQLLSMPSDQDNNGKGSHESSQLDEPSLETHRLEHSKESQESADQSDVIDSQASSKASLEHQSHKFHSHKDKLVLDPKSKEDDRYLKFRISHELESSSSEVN

B1: 1A12: murine anti-hOPN mAb; VH SEQ ID NO: 4, VL SEQ ID NO: 6; from hybridoma 1A12 (antibody, V domains shown)
VH: QVQLEQSGPELVKPGASVKMSCKSSGYTFTTYVMHWVKQKPGQGLEWIGYINPYNDGSKYNEKFKGKATLTSDKSSNTAYMELSSLTSEDSAVYYCASHYGGSPAYWGQGTLVTVSA
VL: DILMTQTPLSLPVSLGDQASISCRSSQSLVHSNGNTYLHWYLQKPGQSPKLLIYKVSNRFSGVPDRFSGSGSGTDFTLKISRVEAEDLGVYFCSQSTHVPWTFGGGTKLEIKR
modifications: amino acid sequence of the heavy chain variable region in 1A12; amino acid sequence of the light chain variable region in 1A12
notes: murine anti-hOPN mAb; from hybridoma 1A12
With B1, the “microvessel density (MVD) in tumor versus irrelevant control” value in test [1] is “significantly less; also recorded: effectively inhibit”. Further, the “inhibition of the reparation of the scratches and damages” value in test [2] was “effectively inhibit”. For the same molecule, the “cross-reaction with the mouse OPN protein” value in test [3] is “cross-reacted”.
